In patent US20260217854A1 one finds Kd data, which are given here for one molecule.

The experiment addresses coil 2 domain of TMCC3 protein (UniProt Q9ULS5). As to the kind of experiment: ELISA on TMCC3 domain proteins.

B1: mouse anti-TMCC3 8D6 monoclonal antibody (antibody, V domains shown)
VH: EIQLQQSGGELVKPGASVKISCTASGYSFTGYNMNWVKQSHGKSPEWIGNINPYYGSTSYNQKFKGKATLTVDKSSSTAYMQLNSLTSEDSAVYYCARWLGLGYAMDYWGQGTSVTVSS
VL: DIVLTQSPASLVVSLGQGATISCRASKSVSPSGYSSMHWYQQKPGQPPKLLIYLASNLESGVPARFSGSGSGTDFTLNIHPVEEEDAATYYCQHSRELPWTFGGGTKLEIKR
On to B1, for which the Kd was found to be 0.01 nM.
